The target in this assay is traptavidin (streptavidin-variant), expressed and purified by IMAC (Streptomyces avidinii) (UniProt P22629). Description: native MS; native electrospray ionization mass spectrometry of the IMAC-purified proteins; oligomeric state of the protomers (tetramer), no cross-linker.

One may read the stoichiometry N as a count of units in the complex or per binding partner. “traptavidin (streptavidin-variant), expressed and purified by IMAC (from UniProt P22629 25-183) (natural protein)” had a percent of the protein that is tetrameric of 95% and a stoichiometry N of 4.

These data come from article PMC13098475.
